Measurements taken from patent publication US20180002403A1 (CRESCENDO BIOLOGICS, published 2018).
Substitutions are numbered along the chain they refer to.

B1: clone 1.1 VH (VHH)
VHH: EVQLVESGGGLVQPGGSLRLSCAASGFTFSSYSMYWVRQAPGKGLEWVANIKQDGSEKYYVDSVKGRFTISRDNAKNSLFLQMNSLRAEDTAVYYCAKGEILPLHFDYWGQGTLVTVSS
notes: Human VH single domain (no light chain) from a Tg/TKO mouse, lead raised against IL-17A; It was cloned in phagemid pUCG3; also called VH 1.1; parent VH 1.1
B2: clone 1.6 VH (VHH)
VHH: B1 VHH with N50E, K58Q, F80Y, H105Y
notes: Optimized variant of clone 1.1 from the recombination library; human VH single domain; also called optimized VH clone 1.6
B3: clone 1.10 VH (VHH)
VHH: VQLVESGGGLVQPGGSLRLSCAASGFTFSSYRMYWVRQAPGKGLEWVASIEQDGSEEYYVDSVKGRFTISRDNAKKSLFLQMNSLRAEDTAVYYCAKGEILPLYFDYWGQGTLVTVSS
notes: Optimized variant of clone 1.1 from the recombination library; human VH single domain; also called optimized VH clone 1.10
B4: clone 2.2 VH (VHH)
VHH: QVQLVQSGAEVKKPGASVKVSCKASGYPFTSYDINWVRQATGRSLEWMGWMNPTNGNTVYAQKFQDRVTMTRNTSISTAYMELSSLRSEDTAVYFCARGRRDDWKNNYWGQGTLVTVSS
notes: Optimized variant of clone 2.1 from the recombination library; human VH single domain; also called optimized VH 2.2

What was measured:
[1] = target: T1, Recombinant human IL-17A (Peprotech AF-200-17) (human, UniProt Q16552 24-155); test: BIAcore T200, single-cycle kinetics, IL-17A amine-coupled to CM5 chip
T1 construct: Amine-coupled to a CM5 chip (100 RU) for BIAcore; also called recombinant IL-17A
Protocol: Binding kinetics of VH antibodies were measured on a BIAcore T200 instrument. Target (either recombinant IL-17A or IL-17RA) was diluted to 1 μg/ml in acetate buffer, pH 5.5 (BIAcore, cat# BR-100-52) and coupled to a CM5 Series S chip (cat # BR-1006-68) using amine-coupling chemistry (NHS-EDC amine-coupling kit, cat # BR-1000-50) and the BIAcore immobilization Wizard software. In this way 100RU of target was immobilised plus a blank surface (no target) was also prepared for reference subtraction.
Binding kinetics of VH antibodies were determined by single-cycle kinetics. VH antibodies were prepared in dilution series (typically 1:3 dilution series starting with 100 nM VH at the highest concentration), and then injected over the antigen-coated surfaces and also a blank surface, starting with the lowest concentration of VH and then working progressively up to the highest concentration. VH binding kinetics were then determined from the (blank subtracted) sensorgram traces using 1:1 binding models and BIAevaluation software.

[2] = target: T1, Recombinant human IL-17A (Peprotech …); test: BIAcore T200, single-cycle kinetics, IL-17A amine-coupled to CM5 chip, 1:1 model
Protocol: (§1) Recombinant IL-17A (Peprotech AF-200-17) was diluted to 1 μg/ml in acetate buffer, pH 5.5 (BIAcore, cat# BR-100-52) and coupled to a CM5 Series S chip (cat # BR-1006-68) using amine-coupling chemistry (NHS-EDC amine-coupling kit, cat # BR-1000-50) and the BIAcore immobilization Wizard software. In this way 100RU of IL-17A was immobilised plus a blank surface (no IL-17A) was also prepared for reference subtraction. For IL-17RA, first a protein G chip was prepared by diluting protein G to 20 μg/ml in acetate buffer, pH 4 (BIAcore, cat# BR-100-49) and then coupled 1200 RU a CM5 Series S chip using amine coupling chemistry. This surface was then used to capture IL-17RA Fc fusion protein from solution: IL-17RA at 10 μg/ml in HBS injected for 10 seconds at 30 μl/min flow rate would capture approximately 100-150RU of IL-17RA onto the protein G surface.
(§2) Binding kinetics of optimized clone 1.1 (anti-IL-17A) and clone 2.1 (anti-IL-17RA) VH were determined by single-cycle kinetics. […] VH binding kinetics were then determined from the (blank subtracted) sensorgram traces using 1:1 binding models and BIAevaluation software.

[3] = target: IL-17RA Fc fusion protein (human, UniProt Q96F46 33-320, limits assumed); test: BIAcore T200, single-cycle kinetics, IL-17RA Fc fusion captured on protein G chip, 1:1 model
Protocol: as §1, §2

T1 sequence (Q16552 24-155 limits assumed): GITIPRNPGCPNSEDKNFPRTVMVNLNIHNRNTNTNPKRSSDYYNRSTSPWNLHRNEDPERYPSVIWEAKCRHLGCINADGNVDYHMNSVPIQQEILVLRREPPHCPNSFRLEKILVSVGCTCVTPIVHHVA

Binder | fold improvement in affinity over parent clone 1.1 [2] | other results
B1 |  | binding result [1]: binds
B2 | ≤ 10 fold | 
B3 | ≤ 10 fold | 
B4 |  | fold improvement in affinity over parent clone 2.1 [3]: 5 fold
